# Laboratory results published in IntAct's records for PubMed 17525340.
# B1: BRCA1-A complex subunit Abraxas 1 (Homo sapiens), Q6UWZ7 (parent)
# chain: MEGESTSAVLSGFVLGALAFQHLNTDSDTEGFLLGEVKGEAKNSITDSQMDDVEVVYTIDIQKYIPCYQLFSFYNSSGEVNEQALKKILSNVKKNVVGWYKFRRHSDQIMTFRERLLHKNLQEHFSNQDLVFLLLTPSIITESCSTHRLEHSLYKPQKGLFHRVPLVVANLGMSEQLGYKTVSGSCMSTGFSRAVQTHSSKFFEEDGSLKEVHKINEMYASLQEELKSICKKVEDSEQAVDKLVKDVNRLKREIEKRRGAQIQAAREKNIQKDPQENIFLCQALRTFFPNSEFLHSCVMSLKNRHVSKSSCNYNHHLDVVDNLTLMVEHTDIPEASPASTPQIIKHKALDLDDRWQFKRSRLLDTQDKRSKADTGSSNQDKASKMSSPETDEEIEKMKGFGEYSRSPTF
# partner: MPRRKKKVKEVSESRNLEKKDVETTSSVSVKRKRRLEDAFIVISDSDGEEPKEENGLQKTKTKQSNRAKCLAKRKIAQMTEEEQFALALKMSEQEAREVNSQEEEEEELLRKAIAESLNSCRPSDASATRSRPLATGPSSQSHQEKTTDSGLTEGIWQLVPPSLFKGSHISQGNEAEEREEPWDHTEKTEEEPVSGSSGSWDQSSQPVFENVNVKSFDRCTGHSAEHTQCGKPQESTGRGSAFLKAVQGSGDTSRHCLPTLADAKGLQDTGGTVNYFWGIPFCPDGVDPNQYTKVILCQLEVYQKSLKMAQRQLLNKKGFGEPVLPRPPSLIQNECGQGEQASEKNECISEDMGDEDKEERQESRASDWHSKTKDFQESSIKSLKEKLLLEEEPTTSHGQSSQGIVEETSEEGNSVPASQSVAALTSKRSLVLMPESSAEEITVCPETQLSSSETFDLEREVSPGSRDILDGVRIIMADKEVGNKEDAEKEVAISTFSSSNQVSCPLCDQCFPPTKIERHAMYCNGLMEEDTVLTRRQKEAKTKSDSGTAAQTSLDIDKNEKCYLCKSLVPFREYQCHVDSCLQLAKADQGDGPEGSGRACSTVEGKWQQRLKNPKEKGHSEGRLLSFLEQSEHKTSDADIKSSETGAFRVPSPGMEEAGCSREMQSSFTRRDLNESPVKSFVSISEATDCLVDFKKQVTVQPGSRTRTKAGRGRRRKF
# B2: BRCA1-A complex subunit Abraxas 1 (Homo sapiens), Q6UWZ7 (parent)
# chain: B1 chain
# Variants of: B1
# Conditions: with uimc1_human UIMC1, Q96RL1
row,effect of a mutation on the interaction,Variant
1,disrupting interaction,MEGESTSAVLSGFVLGALAFQHLNTDSDTEGFLLGEVKGEAKNSITDSQMDDVEVVYTIDIQKYIPCYQLFSFYNSSGEVNEQALKKILSNVKKNVVGWYKFRRHSDQIMTFRERLLHKNLQEHFSNQDLVFLLLTPSIITESCSTHRLEHSLYKPQKGLFHRVPLVVANLGMSEQLGYKTVSGSCMSTGFSRAVQTHSSKFFEEDGSLKEVHKINEMYASLQEELKSICKKVEDSEQAVDKLVKDVNRLKREIEKRRGAQIQAAREKNIQKDPQENIFLCQALRTFFPNSEFLHSCVMSLKNRHVSKSSCNYNHHLDVVDNLTLMVEHTDIPEASPASTPQIIKHKALDLDDRWQFKRSRLLDTQDKRSKADTGSSNQDKASKMSSPETDEEIEKMKGFGEYSRAPTF [S406A]

# Variants of: B2
# Conditions: with brca1_human BRCA1, P38398
# brca1_human BRCA1, P38398, sequence (P38398 whole entry, looked up): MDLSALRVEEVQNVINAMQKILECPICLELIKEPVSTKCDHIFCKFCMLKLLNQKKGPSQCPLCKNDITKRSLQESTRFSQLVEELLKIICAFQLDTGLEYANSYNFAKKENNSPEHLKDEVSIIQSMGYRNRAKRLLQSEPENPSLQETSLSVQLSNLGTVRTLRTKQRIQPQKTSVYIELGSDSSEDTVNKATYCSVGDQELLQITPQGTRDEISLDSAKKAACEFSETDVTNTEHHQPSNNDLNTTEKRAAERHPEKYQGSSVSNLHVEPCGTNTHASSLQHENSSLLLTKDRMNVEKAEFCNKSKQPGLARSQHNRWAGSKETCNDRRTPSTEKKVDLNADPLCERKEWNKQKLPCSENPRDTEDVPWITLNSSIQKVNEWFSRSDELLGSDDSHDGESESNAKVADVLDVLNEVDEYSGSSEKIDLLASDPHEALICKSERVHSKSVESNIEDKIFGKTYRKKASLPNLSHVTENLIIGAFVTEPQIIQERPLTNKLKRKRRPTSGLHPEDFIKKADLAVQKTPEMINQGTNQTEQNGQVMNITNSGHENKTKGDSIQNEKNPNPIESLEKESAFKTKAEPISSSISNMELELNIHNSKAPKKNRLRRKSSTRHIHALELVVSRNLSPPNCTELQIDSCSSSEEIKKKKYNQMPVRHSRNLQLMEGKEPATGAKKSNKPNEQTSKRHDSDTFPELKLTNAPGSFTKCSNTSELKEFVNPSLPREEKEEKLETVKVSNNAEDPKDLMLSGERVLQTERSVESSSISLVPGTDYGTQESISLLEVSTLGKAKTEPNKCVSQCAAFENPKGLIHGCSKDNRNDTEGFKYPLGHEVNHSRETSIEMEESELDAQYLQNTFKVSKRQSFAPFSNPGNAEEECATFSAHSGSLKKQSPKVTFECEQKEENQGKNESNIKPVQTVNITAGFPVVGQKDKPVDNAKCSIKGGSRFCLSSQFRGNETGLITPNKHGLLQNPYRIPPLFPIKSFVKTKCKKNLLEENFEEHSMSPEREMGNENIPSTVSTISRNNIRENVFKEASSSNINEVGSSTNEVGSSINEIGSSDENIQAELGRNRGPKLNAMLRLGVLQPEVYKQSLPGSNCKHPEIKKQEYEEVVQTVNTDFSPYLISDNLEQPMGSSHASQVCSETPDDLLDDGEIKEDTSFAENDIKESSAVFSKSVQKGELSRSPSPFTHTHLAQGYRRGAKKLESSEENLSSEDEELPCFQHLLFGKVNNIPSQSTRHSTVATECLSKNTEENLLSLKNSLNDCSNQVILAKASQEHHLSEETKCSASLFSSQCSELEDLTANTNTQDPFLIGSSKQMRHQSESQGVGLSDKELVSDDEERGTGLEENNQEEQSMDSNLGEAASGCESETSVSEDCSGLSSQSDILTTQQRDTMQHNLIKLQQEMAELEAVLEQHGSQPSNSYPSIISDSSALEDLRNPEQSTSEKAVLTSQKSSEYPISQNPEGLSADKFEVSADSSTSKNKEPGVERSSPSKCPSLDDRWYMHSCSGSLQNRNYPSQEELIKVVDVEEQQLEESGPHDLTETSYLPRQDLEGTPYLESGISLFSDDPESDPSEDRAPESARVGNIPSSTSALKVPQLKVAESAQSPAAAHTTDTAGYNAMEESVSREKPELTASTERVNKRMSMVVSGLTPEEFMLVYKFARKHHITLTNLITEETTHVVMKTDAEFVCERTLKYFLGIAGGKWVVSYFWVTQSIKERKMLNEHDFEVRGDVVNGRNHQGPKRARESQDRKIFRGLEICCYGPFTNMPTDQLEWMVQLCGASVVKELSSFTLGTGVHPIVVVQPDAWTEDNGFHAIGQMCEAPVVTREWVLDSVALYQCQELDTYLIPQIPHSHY
row,effect of a mutation on the interaction,Variant
1,disrupting interaction,MEGESTSAVLSGFVLGALAFQHLNTDSDTEGFLLGEVKGEAKNSITDSQMDDVEVVYTIDIQKYIPCYQLFSFYNSSGEVNEQALKKILSNVKKNVVGWYKFRRHSDQIMTFRERLLHKNLQEHFSNQDLVFLLLTPSIITESCSTHRLEHSLYKPQKGLFHRVPLVVANLGMSEQLGYKTVSGSCMSTGFSRAVQTHSSKFFEEDGSLKEVHKINEMYASLQEELKSICKKVEDSEQAVDKLVKDVNRLKREIEKRRGAQIQAAREKNIQKDPQENIFLCQALRTFFPNSEFLHSCVMSLKNRHVSKSSCNYNHHLDVVDNLTLMVEHTDIPEASPASTPQIIKHKALDLDDRWQFKRSRLLDTQDKRSKADTGSSNQDKASKMSSPETDEEIEKMKGFGEYSRAPTF [S406A]

# Variants of: B2
# Conditions: with brca1_human BRCA1, P38398
# Remark: another data set of the same source
row,effect of a mutation on the interaction,Variant
1,increasing interaction,MEGESTSAVLSGFVLGALAFQHLNTDSDTEGFLLGEVKGEAKNSITDSQMDDVEVVYTIDIQKYIPCYQLFSFYNSSGEVNEQALKKILSNVKKNVVGWYKFRRHSDQIMTFRERLLHKNLQEHFSNQDLVFLLLTPSIITESCSTHRLEHSLYKPQKGLFHRVPLVVANLGMSEQLGYKTVSGSCMSTGFSRAVQTHSSKFFEEDGSLKEVHKINEMYASLQEELKSICKKVEDSEQAVDKLVKDVNRLKREIEKRRGAQIQAAREKNIQKDPQENIFLCQALRTFFPNSEFLHSCVMSLKNRHVSKSSCNYNHHLDVVDNLTLMVEHTDIPEASPASTPQIIKHKALDLDDRWQFKRSRLLDTQDKRSKADTGSSNQDKASKMSSPETDEEIEKMKGFGEYSRAPTF [S406A]
